Source: US20040180405A1 (NEUROSEARCH A S, published 2004)

Key:
Assay in all cases: cell-based or functional assay
[1] = molecular target: T1, KCNQ3 (T323Y) mutant (human, UniProt O43525 1-872)
T1 sequence (looked up): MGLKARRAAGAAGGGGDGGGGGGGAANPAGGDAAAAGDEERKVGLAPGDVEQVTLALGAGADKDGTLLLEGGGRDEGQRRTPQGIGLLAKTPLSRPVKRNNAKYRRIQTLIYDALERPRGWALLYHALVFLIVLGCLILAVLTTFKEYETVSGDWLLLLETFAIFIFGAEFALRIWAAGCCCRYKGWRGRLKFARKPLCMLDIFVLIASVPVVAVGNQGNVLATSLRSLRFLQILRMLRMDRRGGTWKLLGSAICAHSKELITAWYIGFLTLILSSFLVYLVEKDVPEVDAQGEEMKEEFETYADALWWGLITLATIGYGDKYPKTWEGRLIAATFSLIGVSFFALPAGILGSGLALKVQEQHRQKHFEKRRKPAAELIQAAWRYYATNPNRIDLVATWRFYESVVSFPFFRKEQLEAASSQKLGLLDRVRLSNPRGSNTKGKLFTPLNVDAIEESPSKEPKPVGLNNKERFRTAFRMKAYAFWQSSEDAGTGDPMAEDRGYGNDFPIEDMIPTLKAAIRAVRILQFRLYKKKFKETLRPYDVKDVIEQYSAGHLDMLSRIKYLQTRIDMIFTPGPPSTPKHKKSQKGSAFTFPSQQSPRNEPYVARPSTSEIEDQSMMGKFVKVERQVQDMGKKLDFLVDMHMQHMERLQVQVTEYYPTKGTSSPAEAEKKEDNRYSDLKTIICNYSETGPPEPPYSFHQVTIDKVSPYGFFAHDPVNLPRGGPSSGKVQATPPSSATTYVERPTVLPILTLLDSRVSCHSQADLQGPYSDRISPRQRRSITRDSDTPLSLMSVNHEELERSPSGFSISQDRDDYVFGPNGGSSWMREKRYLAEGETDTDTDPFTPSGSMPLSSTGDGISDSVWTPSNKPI

[2] = molecular target: T2, KCNQ3(G318S) dominant negative mutant (human, UniProt O43525 1-872)
T2 sequence (looked up): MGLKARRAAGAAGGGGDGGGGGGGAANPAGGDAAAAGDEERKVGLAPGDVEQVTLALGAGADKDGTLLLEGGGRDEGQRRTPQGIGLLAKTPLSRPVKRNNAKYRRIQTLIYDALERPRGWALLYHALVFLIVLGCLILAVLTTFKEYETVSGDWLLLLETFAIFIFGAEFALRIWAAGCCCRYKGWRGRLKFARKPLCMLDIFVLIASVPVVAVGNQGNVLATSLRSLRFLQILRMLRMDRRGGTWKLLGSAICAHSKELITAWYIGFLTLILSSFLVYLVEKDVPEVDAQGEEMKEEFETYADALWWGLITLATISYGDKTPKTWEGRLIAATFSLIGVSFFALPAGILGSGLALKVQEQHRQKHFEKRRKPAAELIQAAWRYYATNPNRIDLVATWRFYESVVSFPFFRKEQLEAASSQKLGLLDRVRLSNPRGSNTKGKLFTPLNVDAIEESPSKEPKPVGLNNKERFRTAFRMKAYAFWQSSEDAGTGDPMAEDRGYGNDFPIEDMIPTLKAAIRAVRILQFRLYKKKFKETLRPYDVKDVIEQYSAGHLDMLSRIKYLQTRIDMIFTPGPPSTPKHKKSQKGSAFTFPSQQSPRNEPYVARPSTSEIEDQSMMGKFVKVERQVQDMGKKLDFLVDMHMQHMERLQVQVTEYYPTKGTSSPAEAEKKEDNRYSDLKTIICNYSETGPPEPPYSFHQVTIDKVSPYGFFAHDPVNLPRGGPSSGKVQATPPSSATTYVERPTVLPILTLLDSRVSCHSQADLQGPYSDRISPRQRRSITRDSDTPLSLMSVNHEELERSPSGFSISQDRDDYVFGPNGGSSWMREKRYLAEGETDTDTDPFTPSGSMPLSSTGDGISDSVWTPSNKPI

[3] = molecular target: T3, KCNQ3 potassium channel subunit (human, UniProt O43525 1-872)
T3 sequence (looked up): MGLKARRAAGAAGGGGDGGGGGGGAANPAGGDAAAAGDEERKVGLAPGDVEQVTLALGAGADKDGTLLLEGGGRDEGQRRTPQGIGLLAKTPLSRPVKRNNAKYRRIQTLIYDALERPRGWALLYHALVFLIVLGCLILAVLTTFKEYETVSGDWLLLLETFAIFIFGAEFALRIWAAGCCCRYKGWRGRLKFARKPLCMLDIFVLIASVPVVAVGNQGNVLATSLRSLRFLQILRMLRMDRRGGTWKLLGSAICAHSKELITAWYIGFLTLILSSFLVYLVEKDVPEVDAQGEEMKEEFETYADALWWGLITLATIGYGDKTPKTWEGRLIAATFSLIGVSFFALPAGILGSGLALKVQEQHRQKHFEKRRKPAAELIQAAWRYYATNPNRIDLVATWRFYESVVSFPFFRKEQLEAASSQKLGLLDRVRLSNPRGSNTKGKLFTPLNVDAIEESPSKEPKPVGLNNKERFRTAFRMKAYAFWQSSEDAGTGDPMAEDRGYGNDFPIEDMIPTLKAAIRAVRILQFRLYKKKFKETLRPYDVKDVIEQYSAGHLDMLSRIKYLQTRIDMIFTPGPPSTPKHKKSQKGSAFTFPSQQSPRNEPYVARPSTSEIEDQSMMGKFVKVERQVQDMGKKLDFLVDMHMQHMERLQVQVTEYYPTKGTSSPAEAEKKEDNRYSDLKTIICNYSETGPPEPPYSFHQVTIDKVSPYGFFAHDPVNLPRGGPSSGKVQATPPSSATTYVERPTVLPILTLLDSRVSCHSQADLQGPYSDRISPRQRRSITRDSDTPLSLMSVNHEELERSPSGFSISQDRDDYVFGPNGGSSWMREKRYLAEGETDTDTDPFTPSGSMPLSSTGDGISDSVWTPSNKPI

- IC50 of extracellular TEA (small molecule) on currents of KCNQ5 co-expressed with KCNQ3 (T323Y); KCNQ5 homomers 71 mM [1]: ~30 mM
- current relative to WT KCNQ5 currents on co-injection with the dominant negative mutant [2]: < 50%
- IC50 of extracellular TEA (small molecule) on currents of co-expressed KCNQ5 and KCNQ3 (1:1); KCNQ5 homomers 71 mM [3]: ~200 mM
B1: KCNQ5 potassium channel subunit (other)
chain: MKDVESGRGRVLLNSAAARGDGLLLLGTRAATLGGGGGGLRESRRGKQGARMSLLGKPLSYTSSQSCRRNVKYRRVQNYLYNVLERPRGWAFIYHAFVFLLVFGCLILSVFSTIPEHTKLASSCLLILEFVMIVVFGLEFIIRIWSAGCCCRYRGWQGRLRFARKPFCVIDTIVLIASIAVVSAKTQGNIFATSALRSLRFLQILRMVRMDRRGGTWKLLGSVVYAHSKELITAWYIGFLVLIFSSFLVYLVEKDANKEFSTYADALWWGTITLTTIGYGDKTPLTWLGRLLSAGFALLGISFFALPAGILGSGFALKVQEQHRQKHFEKRRNPAANLIQCVWRSYAADEKSVSIATWKPHLKALHTCSPTKKEQGEASSSQKLSFKERVRMASPRGQSIKSRQASVGDRRSPSTDITAEGSPTKVQKSWSFNDRTRFRPSLRLKSSQPKPVIDADTALGTDDVYDEKGCQCDVSVEDLTPPLKTVIRAIRIMKFHVAKRKFKETLRPYDVKDVIEQYSAGHLDMLCRIKSLQTRVDQILGKGQITSDKKSREKITAEHETTDDLSMLGRVVKVEKQVQSIESKLDCLLDIYQQVLRKGSASALALASFQIPPFECEQTSDYQSPVDSKDLSGSAQNSGCLSRSTSANISRGLQFILTPNEFSAQTFYALSPTMHSQATQVPISQSDGSAVAATNTIANQINTAPKPAAPTTLQIPPPLPAIKHLPRPETLHPNPAGLQESISDVTTCLVASKENVQVAQSNLTKDRSMRKSFDMGGETLLSVCPMVPKDLGKSLSVQNLIRSTEELNIQLSGSESSGSRGSQDFYPKWRESKLFITDEEVGPEETETDTFDAAPQPAREAAFASDSLRTGRSRSSQSICKAGESTDALSLPHVKLK
